# ± gives the uncertainty stated by the source.
# B1: Tumor protein 63, residues 545 to 610; numbered along this chain, Q9H3D4 (parent)
# chain: TDCSIVSFLARLGCSSCLDYFTTQGLTTIYQIEHYSMDDLASLKIPEQFRHAIWKGILDHRQLHEF
# Variants of: B1
# Experiment: abundance fitness (aPCA) (normalised: wild type 0, dead -1); higher = more abundant; growth selection in yeast, the domain comes from the species named
# Details: Homo sapiens
row,Variant,abundance fitness
1,TDCSIVSFLARLGCSSCLDYFTTQGLTTIYQIEHYSMDDLASLKIPRQFRHAIWKGILDHRQLHEF [E47R],-0.054 ± 0.027
2,TDCSIVSFLARLGCSSCLDYFTTQGLTTIYQIEHYSMDDLASLKIPYQFRHAIWKGILDHRQLHEF [E47Y],-0.002 ± 0.037
3,TDCSIVSFLARLGCSSCLDYFTTQGLTTIYQIEHYSMDDLASLKIPSQFRHAIWKGILDHRQLHEF [E47S],-0.02 ± 0.021
4,TDCSIVSFLARLGCSSCLDYFTTQGLTTIYQIEHYSMDDLASLKIPTQFRHAIWKGILDHRQLHEF [E47T],-0.036 ± 0.032
5,TDCSIVSFLARLGCSSCLDYFTTQGLTTIYQIEHYSMDDLASLKIPWQFRHAIWKGILDHRQLHEF [E47W],-0.08 ± 0.024
6,TDCSIVSFLARLGCSSCLDYFTTQGLTTIYQIEHYSMDDLASLKIPQQFRHAIWKGILDHRQLHEF [E47Q],-0.004 ± 0.037
7,TDCSIVSFLARLGCSSCLDYFTTQGLTTIYQIEHYSMDDLASLKIPEQFRHKIWKGILDHRQLHEF [A52K],-0.023 ± 0.038
8,TDCSIVSFLARLGCSSCLDYFTTQGLTTIYQIEHYSMDDLASLKIPEQFRHIIWKGILDHRQLHEF [A52I],-0.062 ± 0.052
9,TDCSIVSFLARLGCSSCLDYFTTQGLTTIYQIEHYSMDDLASLKIPEQFRHCIWKGILDHRQLHEF [A52C],-0.015 ± 0.038
10,TDCSIVSFLARLGCSSCLDYFTTQGLTTIYQIEHYSMDDLASLKIPEQFRHGIWKGILDHRQLHEF [A52G],-0.086 ± 0.021
11,TDCSIVSFLARLGCSSCLDYFTTQGLTTIYQIEHYSMDDLASLKIPEQFRHDIWKGILDHRQLHEF [A52D],-0.064 ± 0.03
12,TDCSIVSFLARLGCSSCLDYFTTQGLTTIYQIEHYSMDDLASLKIPEQFRHHIWKGILDHRQLHEF [A52H],-0.068 ± 0.046
13,TDCSIVSFLARLGCSSCLDYFTTQGLTTIYQIEHYSMDDLASLKIPEQFRHFIWKGILDHRQLHEF [A52F],-0.049 ± 0.047
14,TDCSIVSFLARLGCSSCLDYFTTQGLTTIYQIEHYSMDDLASLKIPEQFRHEIWKGILDHRQLHEF [A52E],-0.024 ± 0.029
15,TDCSIVSFLARLGCSSCLDYFTTQGLTTIYQIEHYSMDDLASLKIPEWFRHAIWKGILDHRQLHEF [Q48W],-0.203 ± 0.037
16,TDCSIVSFLARLGCSSCLDYFTTQGLTTIYQIEHYSMDDLASLKIPEVFRHAIWKGILDHRQLHEF [Q48V],-0.027 ± 0.022
17,TDCSIVSFLARLGCSSCLDYFTTQGLTTIYQIEHYSMDDLASLKIPEGFRHAIWKGILDHRQLHEF [Q48G],-0.025 ± 0.02
18,TDCSIVSFLARLGCSSCLDYFTTQGLTTIYQIEHYSMDDLASLKIPEYFRHAIWKGILDHRQLHEF [Q48Y],-0.078 ± 0.043
19,TDCSIVSFLARLGCSSCLDYFTTQGLTTIYQIEHYSMDDLASLKIPEDFRHAIWKGILDHRQLHEF [Q48D],-0.04 ± 0.038
20,TDCSIVSFLARLGCSSCLDYFTTQGLTTIYQIEHYSMDDLASLKIPEEFRHAIWKGILDHRQLHEF [Q48E],0.035 ± 0.033
21,TDCSIVSFLARLGCSSCLDYFTTQGLTTIYQIEHYSMDDLASLKIPEAFRHAIWKGILDHRQLHEF [Q48A],-0.024 ± 0.023

row,Variant,abundance fitness
1,TDCSIVSFLARLGCSSCLDYFTTQGLTTIYQIEHYSMDDLASLKIPESFRHAIWKGILDHRQLHEF [Q48S],-0.038 ± 0.025
2,TDCSIVSFLARLGCSSCLDYFTTQGLTTIYQIEHYSMDDLASLKIPETFRHAIWKGILDHRQLHEF [Q48T],-0.023 ± 0.034
3,TDCSIVSFLARLGCSSCLDYFTTQGLTTIYQIEHYSMDDLASLKIPEIFRHAIWKGILDHRQLHEF [Q48I],-0.052 ± 0.056
4,TDCSIVSFLARLGCSSCLDYFTTQGLTTIYQIEHYSMDDLASLKIPENFRHAIWKGILDHRQLHEF [Q48N],-0.006 ± 0.05
5,TDCSIVSFLARLGCSSCLDYFTTQGLTTIYQIEHYSMDDLASLKIPECFRHAIWKGILDHRQLHEF [Q48C],-0.064 ± 0.03
6,TDCSIVSFLARLGCSSCLDYFTTQGLTTIYQIEHYSMDDLASLKIPERFRHAIWKGILDHRQLHEF [Q48R],-0.013 ± 0.021
7,TDCSIVSFLARLGCSSCLDYFTTQGLTTIYQIEHYSMDDLASLKIPELFRHAIWKGILDHRQLHEF [Q48L],-0.063 ± 0.027
8,TDCSIVSFLARLGCSSCLDYFTTQGLTTIYQIEHYSMDDLASLKIPEHFRHAIWKGILDHRQLHEF [Q48H],-0.005 ± 0.057
9,TDCSIVSFLARLGCSSCLDYFTTQGLTTIYQIEHYSMDDLASLKIPEPFRHAIWKGILDHRQLHEF [Q48P],-0.006 ± 0.044
10,TDCSIVSFLARLGCSSCLDYFTTQGLTTIYQIEHYSMDDLASLKIPEKFRHAIWKGILDHRQLHEF [Q48K],-0.015 ± 0.036
11,TDCSIVSFLARLGCSSCLDYFTTQGLTTIYQIEHYSMDDLASLKIPEMFRHAIWKGILDHRQLHEF [Q48M],-0.028 ± 0.034
12,TDCSIVSFLARLGCSSCLDYFTTQGLTTIYQIEHYSMDDLASLKIPEQFEHAIWKGILDHRQLHEF [R50E],-0.159 ± 0.034
13,TDCSIVSFLARLGCSSCLDYFTTQGLTTIYQIEHYSMDDLASLKIPEQFKHAIWKGILDHRQLHEF [R50K],-0.067 ± 0.048
14,TDCSIVSFLARLGCSSCLDYFTTQGLTTIYQIEHYSMDDLASLKIPEQFGHAIWKGILDHRQLHEF [R50G],-0.274 ± 0.023
15,TDCSIVSFLARLGCSSCLDYFTTQGLTTIYQIEHYSMDDLASLKIPEQFQHAIWKGILDHRQLHEF [R50Q],-0.067 ± 0.035
16,TDCSIVSFLARLGCSSCLDYFTTQGLTTIYQIEHYSMDDLASLKIPEQFHHAIWKGILDHRQLHEF [R50H],-0.03 ± 0.084
17,TDCSIVSFLARLGCSSCLDYFTTQGLTTIYQIEHYSMDDLASLKIPEQFMHAIWKGILDHRQLHEF [R50M],-0.002 ± 0.029
18,TDCSIVSFLARLGCSSCLDYFTTQGLTTIYQIEHYSMDDLASLKIPEQFFHAIWKGILDHRQLHEF [R50F],-0.149 ± 0.07
19,TDCSIVSFLARLGCSSCLDYFTTQGLTTIYQIEHYSMDDLASLKIPEQFYHAIWKGILDHRQLHEF [R50Y],-0.174 ± 0.036
20,TDCSIVSFLARLGCSSCLDYFTTQGLTTIYQIEHYSMDDLASLKIPEQFDHAIWKGILDHRQLHEF [R50D],-0.712 ± 0.074

# Reference: the Human Domainome abundance scans (Beltran et al. 2025)
